Data reported in patent US20220064322A1 (JACOBIO PHARMACEUTICALS, published 2022).
Positions count from the first letter of the chain named.

T1: human CD73 ecto-domain recombinant protein (huCD73) (human, UniProt P21589 27-547)
T1 sequence: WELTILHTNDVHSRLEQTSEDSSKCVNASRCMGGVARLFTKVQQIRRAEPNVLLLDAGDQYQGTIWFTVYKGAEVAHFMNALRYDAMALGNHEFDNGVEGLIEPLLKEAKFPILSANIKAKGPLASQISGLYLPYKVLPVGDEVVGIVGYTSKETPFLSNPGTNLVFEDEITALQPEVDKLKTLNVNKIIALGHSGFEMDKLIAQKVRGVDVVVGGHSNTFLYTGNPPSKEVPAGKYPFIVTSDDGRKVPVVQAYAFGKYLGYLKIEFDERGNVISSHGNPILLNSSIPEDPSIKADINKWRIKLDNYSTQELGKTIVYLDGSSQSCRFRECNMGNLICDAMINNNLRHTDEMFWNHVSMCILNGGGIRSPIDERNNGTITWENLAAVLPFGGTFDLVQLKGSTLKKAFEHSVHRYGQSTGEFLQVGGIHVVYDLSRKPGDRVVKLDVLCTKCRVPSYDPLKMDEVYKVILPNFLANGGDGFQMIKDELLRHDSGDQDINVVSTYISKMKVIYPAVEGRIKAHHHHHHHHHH

T2: cynomolgus CD73 on the cell surface (293T/17-cynoCD73 cells) (cynomolgus (Macaca fascicularis), UniProt P21589 27-547 (human entry))
T2 chain: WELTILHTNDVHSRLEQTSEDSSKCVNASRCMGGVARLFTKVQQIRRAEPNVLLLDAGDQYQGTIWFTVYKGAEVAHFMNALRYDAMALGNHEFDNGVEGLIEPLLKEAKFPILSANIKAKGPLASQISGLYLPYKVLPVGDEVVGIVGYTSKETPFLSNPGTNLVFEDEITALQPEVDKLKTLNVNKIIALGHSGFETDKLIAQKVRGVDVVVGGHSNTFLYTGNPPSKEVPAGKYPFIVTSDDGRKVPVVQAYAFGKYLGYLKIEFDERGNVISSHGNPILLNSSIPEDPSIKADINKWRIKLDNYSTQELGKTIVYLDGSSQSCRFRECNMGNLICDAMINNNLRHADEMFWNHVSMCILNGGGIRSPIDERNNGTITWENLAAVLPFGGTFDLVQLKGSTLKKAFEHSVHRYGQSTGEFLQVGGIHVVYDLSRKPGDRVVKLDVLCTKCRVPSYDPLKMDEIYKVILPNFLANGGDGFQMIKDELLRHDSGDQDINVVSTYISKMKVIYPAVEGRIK

B1: 191C3A8B9 (antibody, mouse IgG1, kappa, V domains shown)
VH: QVQLKESGPGLVAPSQSLSITCTVSGFSLTNYGVHWVRQPPGKGLEWLGVIWAGGSTNYNSALMSRLSISKDNSKSQLFLKMNSLQADDTAMYYCARERGSSWGTMDYWGQGTSVTVSS
VL: QIVLTQSPAIMSASPGEKVTMTCSASSRVSYMHWYQQKSGTSPKRWIYDTSQLASGVPARFSGSGSGTSYSLTISSMEAEDAATYYCQQWSSNPYTFGGGTKLEMRR
notes: Hybridoma antibody, mouse IgG1 / mouse kappa full chains
B2: 66F2A8D6 (antibody, mouse IgG1, kappa)
heavy: QVHLQQSGAELAKPGASVNLSCKASGYAFTSYWMHWVKQRPGQGLEWIGYINPSSGLAKYNQKFKDKATLTTDKSSNTAYMQLSSLTYDDSAVYYCGRWLLSAWFAYWGQGTLVTVSAAKTTPPSVYPLAPGSAAQTNSMVTLGCLVKGYFPEPVTVTWNSGSLSSGVHTFPAVLQSDLYTLSSSVTVPSSTWPSETVTCNVAHPASSTKVDKKIVPRDCGCKPCICTVPEVSSVFIFPPKPKDVLTITLTPKVTCVVVDISKDDPEVQFSWFVDDVEVHTAQTQPREEQFNSTFRSVSELPIMHQDWLNGKEFKCRVNSAAFPAPIEKTISKTKGRPKAPQVYTIPPPKEQMAKDKVSLTCMITDFFPEDITVEWQWNGQPAENYKNTQPIMDTDGSYFVYSKLNVQKSNWEAGNTFTCSVLHEGLHNHHTEKSLSHSPGK
light: DIKMTQSPSSIYASLGERVTITCKASQGINTYLSWFQQKPGKSPKTLIYRANILVDGVPSRFSGSGSGQDYSLTINSLEYEDMGIYYCLQYDEFPYTFGGGTKLEIKRADAAPTVSIFPPSSEQLTSGGASVVCFLNNFYPKDINVKWKIDGSERQNGVLNSWTDQDSKDSTYSMSSTLTLTKDEYERHNSYTCEATHKTSTSPIVKSFNRNEC
notes: as for B1
B3: 94A12G11F2 (antibody, mouse IgG1, kappa)
heavy: B2 heavy with H3Q, N19K, A28T, L57Y, A58T, Y60S, T72A, N77S, D89E
light: B2 light with K3R, I11M, G28D, T46S, A51S, N76S, E93D
notes: as for B1
B4: S1B5 (antibody, human IgG1, kappa, V domains shown)
VH: EVQLKESGAELVKPGASVKISCKATGYTFTGYWIEWVKQRPGRGLEWIGEILPGSDITNYNEKFKGKATITADTSSNTAYMQLSSLTTEDSAIYYCARRGYDETGYAMDYWGQGTSVTVSS
VL: DIVMTQSPASLAVSLGQRATISCKASQSVDYDGDSYMNWYQQKPGQPPKLLIHAASNLESGIPARFSGSGSGTDFTLNIHPVEEEDAAVYFCQQSKEVPWTFGEGTKLEIKR
notes: Phage antibody, chimeric human IgG1 / human kappa full chains

The binders below were run against T1, human CD73 ecto-domain recombinant … (assay: cell-based or functional assay).
B1 was tested, and the “Bottom (lower plateau of the fitted curve), blockade of soluble huCD73 enzyme activity (AMP hydrolysis, luciferase/CellTiter-Glo)” value was 5.55, the “IC50, blockade of soluble huCD73 enzyme activity (AMP hydrolysis, luciferase/CellTiter-Glo)” value was 2.41 nM and the “Top (upper plateau of the fitted curve), blockade of soluble huCD73 enzyme activity (AMP hydrolysis, luciferase/CellTiter-Glo)” value was 93.7.
In the case of B2, the “Bottom (lower plateau of the fitted curve), blockade of soluble huCD73 enzyme activity (AMP hydrolysis, luciferase/CellTiter-Glo)” value is reported as 6.36, the “IC50, blockade of soluble huCD73 enzyme activity (AMP hydrolysis, luciferase/CellTiter-Glo)” value is reported as 1.96 nM and the “Top (upper plateau of the fitted curve), blockade of soluble huCD73 enzyme activity (AMP hydrolysis, luciferase/CellTiter-Glo)” value is reported as 86.1.
In the case of B3, the “Bottom (lower plateau of the fitted curve), blockade of soluble huCD73 enzyme activity (AMP hydrolysis, luciferase/CellTiter-Glo)” value is reported as 6.21, the “IC50, blockade of soluble huCD73 enzyme activity (AMP hydrolysis, luciferase/CellTiter-Glo)” value is reported as 1.5 nM and the “Top (upper plateau of the fitted curve), blockade of soluble huCD73 enzyme activity (AMP hydrolysis, luciferase/CellTiter-Glo)” value is reported as 87.8.
B4 was tested, and the “Bottom (lower plateau of the fitted curve), blockade of soluble huCD73 enzyme activity (AMP hydrolysis, luciferase/CellTiter-Glo)” value was 16.2, the “IC50, blockade of soluble huCD73 enzyme activity (AMP hydrolysis, luciferase/CellTiter-Glo)” value was 3.26 nM and the “Top (upper plateau of the fitted curve), blockade of soluble huCD73 enzyme activity (AMP hydrolysis, luciferase/CellTiter-Glo)” value was 99.5.

Each binder was assayed against T1, human CD73 ecto-domain recombinant … (assay: indirect ELISA, coated soluble huCD73, curve fit).
Description: (§1) The indirect ELISA method was applied to evaluate the binding ability of each positive clone to soluble huCD73 protein. Soluble huCD73 was coated, and gradient diluted samples were incubated, then HPR-labeled secondary antibody was added, finally TMB was added to develop the color, and OD450 was read after termination.
(§2) 1 ug/ml of recombinant CD73 protein was coated on ELISA plates (Coning), incubate overnight at 4° C. The next day, wash 5 times in PBS and blocked with 200 ul/well 2% skimmed milk, a certain dose range of CD73 antibodies were incubated for 1 h at room temperature. Wash 5 times with PBST washing buffer (PBS, 0.05% Tween 20), add HRP-conjugated goat anti-mouse IgG (H+L) (Promega) and incubate at room temperature for 1 h to detect bound anti-CD73 antibodies; wash the plate 5 times again and add TMB (Life Technologies) for color development for 5 to 10 min; finally the reaction was stopped by adding 1N HCl, and the OD value was measured at 450 nm. GraphPad Prism software was used to generate data graphs and statistical affinity data.
In the case of B1, the Bottom is reported as 0.0498 OD450 and the Top is reported as 2.75 OD450.
B2 showed a Bottom of 0.165 OD450 and a Top of 3.11 OD450.
Binder B3 has a Bottom of 0.0566 OD450 and a Top of 2.94 OD450.
B4 showed a Bottom of 0.007 OD450 and a Top of 2.93 OD450.

The binders below were run against T1, human CD73 ecto-domain recombinant … (assay: indirect ELISA, coated soluble huCD73).
Description: as §1, §2
Binder B1 has an EC50 of 0.279 nM.
Work on B2 yielded an EC50 of 0.153 nM.
B3 was tested, and the EC50 was 0.242 nM.
B4 was tested, and the EC50 was 0.085 nM.

The binders below were run against T1, human CD73 ecto-domain recombinant … (assay: indirect ELISA, coated soluble huCD73, HRP-labelled secondary antibody, OD450).
Description: as §1, §2
B1 was tested, and the “EC50 (read off the curve)” value was roughly 0.04 µg/mL.
For B2, the “EC50 (read off the curve)” value was roughly 0.2 nM.
For B3, the “EC50 (read off the curve)” value was roughly 0.2 nM.
For B4, the “EC50 (read off the curve)” value was roughly 0.08 nM.

Target: T2, cynomolgus CD73 on the cell surface …
Experiment: cell-based or functional assay
With B1 the “IC50, blockade of 5'exonuclease activity on 293T/17-Cyno CD73 cells” value (“IC50, blockade of 5'exonuclease activity” below) was 0.001 nM.
B2 was tested, and the “IC50, blockade of 5'exonuclease activity” value was 0.077 nM.
With B3 the “IC50, blockade of 5'exonuclease activity” value was 0.006 nM.
In the case of B4, the “IC50, blockade of 5'exonuclease activity” value is reported as 0.085 nM.
